Measurements: patent US12528864 (GlaxoSmithKline, dated 2026)

Legend:
recombinant human CD226 = molecular target: T1, recombinant human CD226 (human, UniProt Q15762 19-247, limits assumed); test: surface plasmon resonance (SPR)
T1 sequence (looked up): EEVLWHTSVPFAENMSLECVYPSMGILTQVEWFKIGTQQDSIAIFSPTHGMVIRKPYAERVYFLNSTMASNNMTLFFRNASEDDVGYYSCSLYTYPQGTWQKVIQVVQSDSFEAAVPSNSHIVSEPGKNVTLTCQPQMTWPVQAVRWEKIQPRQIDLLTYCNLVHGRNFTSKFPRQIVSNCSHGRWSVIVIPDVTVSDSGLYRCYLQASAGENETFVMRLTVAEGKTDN

recombinant human CD155 = molecular target: T2, recombinant human CD155 (human, UniProt P15151 21-343); test: surface plasmon resonance (SPR)
T2 sequence: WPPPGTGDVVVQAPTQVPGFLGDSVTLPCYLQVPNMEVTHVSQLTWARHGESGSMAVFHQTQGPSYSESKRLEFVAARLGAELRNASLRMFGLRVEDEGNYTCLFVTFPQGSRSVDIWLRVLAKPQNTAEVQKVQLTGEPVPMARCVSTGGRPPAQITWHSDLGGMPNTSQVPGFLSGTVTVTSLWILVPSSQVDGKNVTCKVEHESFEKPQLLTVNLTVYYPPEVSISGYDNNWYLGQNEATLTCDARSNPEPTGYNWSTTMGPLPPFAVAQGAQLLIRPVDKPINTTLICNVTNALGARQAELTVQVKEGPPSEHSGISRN

[1] = molecular target: T3, human CD96v2 expressed on cells (CHO cells; transiently transfected HEK cells) (human, UniProt P40200-2 22-569); test: flow cytometry on transiently transfected HEK cells (Human CD96v2)
T3 construct: whole, on cells; the cell is named under assay; also called CHO-huCD96; hCD96v2
T3 sequence (looked up): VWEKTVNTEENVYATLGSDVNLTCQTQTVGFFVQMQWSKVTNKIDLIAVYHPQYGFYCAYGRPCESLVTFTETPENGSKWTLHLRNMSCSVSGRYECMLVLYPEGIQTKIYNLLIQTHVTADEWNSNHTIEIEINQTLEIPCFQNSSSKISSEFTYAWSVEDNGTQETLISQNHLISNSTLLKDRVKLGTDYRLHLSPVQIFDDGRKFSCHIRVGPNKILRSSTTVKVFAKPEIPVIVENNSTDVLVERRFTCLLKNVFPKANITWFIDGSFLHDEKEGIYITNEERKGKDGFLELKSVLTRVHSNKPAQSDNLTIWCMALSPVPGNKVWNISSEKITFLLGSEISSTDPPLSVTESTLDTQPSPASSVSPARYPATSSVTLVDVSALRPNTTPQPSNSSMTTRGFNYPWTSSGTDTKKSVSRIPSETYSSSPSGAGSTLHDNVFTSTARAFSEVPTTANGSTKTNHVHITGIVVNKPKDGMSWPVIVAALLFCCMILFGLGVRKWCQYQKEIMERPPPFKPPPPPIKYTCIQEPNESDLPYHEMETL

[2] = molecular target: T4, recombinant cynomolgus monkey CD96v2 (cynomolgus monkey, UniProt A0A2K5TWV6 22-487, biotinylated (site not stated)); test: MSD-SET solution equilibrium titration, antibody titrated against constant biotinylated CD96, free antigen detected
T4 construct: Soluble recombinant protein used in MSD-SET; also called cynomolgus monkey biotinylated CD96 protein
T4 sequence: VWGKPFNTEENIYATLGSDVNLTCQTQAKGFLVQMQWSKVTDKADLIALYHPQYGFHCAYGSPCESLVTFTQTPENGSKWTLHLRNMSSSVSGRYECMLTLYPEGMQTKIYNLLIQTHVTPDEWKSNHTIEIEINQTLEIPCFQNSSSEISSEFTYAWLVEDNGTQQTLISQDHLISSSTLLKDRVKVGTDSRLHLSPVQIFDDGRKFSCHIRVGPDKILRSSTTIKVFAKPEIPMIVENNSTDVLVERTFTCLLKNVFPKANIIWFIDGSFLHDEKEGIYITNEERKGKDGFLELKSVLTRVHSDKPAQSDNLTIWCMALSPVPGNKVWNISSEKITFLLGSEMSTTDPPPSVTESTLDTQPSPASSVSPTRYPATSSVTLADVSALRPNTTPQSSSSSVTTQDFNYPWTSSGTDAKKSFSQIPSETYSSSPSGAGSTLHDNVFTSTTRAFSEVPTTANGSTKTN

[3] = molecular target: T5, cynomolgus monkey CD96v2 expressed on cells (CHO cells; transiently transfected HEK cells) (cynomolgus monkey, UniProt A0A2K5TWV6 22-569); test: flow cytometry on transiently transfected HEK cells (Cyno CD96v2)
T5 construct: the cell is named under assay; also called CHO-cyCD96; Cyno CD96v2
T5 sequence: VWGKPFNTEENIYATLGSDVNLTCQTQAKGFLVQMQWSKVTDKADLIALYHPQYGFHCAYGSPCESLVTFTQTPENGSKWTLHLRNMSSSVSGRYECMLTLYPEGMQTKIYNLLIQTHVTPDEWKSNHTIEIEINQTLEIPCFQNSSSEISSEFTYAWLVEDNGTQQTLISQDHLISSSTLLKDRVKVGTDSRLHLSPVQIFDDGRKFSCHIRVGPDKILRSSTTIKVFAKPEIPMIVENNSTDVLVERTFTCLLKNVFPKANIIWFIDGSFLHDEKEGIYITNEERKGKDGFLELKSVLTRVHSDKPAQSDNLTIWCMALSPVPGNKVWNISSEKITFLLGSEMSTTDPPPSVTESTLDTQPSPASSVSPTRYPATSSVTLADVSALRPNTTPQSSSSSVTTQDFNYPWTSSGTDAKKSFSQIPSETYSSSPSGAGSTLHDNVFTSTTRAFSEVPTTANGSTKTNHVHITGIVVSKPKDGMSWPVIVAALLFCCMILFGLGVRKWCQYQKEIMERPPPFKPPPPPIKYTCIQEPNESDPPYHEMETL

B1: 42Y073-86F08-66 (antibody)
heavy: not shown
light: DIQLTQSPSSLSASVGDRVTITCRASQSISSYLNWYQQKPGKAPKLLIYAASSLQSGVPSRFSGSGSGTDFTLTISSLQPEDFATYYCQQVLHTITFGGGTKVEIKRTVAAPSVFIFPPSDEQLKSGTASVVCLLNNFYPREAKVQWKVDNALQSGNSQESVTEQDSKDSTYSLSSTLTLSKADYEKHKVYACEVTHQGLSSPVTKSFNRGEC
notes: also called GSK 6097608; GSK6097608
Does B1 bind (recombinant human CD226)?
Result: no binding

Does B1 bind (recombinant human CD155)?
Result: no binding

What about the “EC50 (read off the curve)” value [1] of the same binder?
The value was about 6 nM.

What about the “IC50 (read off the curve)” value [2] of the same binder?
Its value is about 0.4 nM.

What about the “EC50 (read off the curve)” value [3] of the same binder?
Its value is about 10 nM.
